Test results: US20110039770A1 (PHARMAGAP, published 2011)

Experiments:
[1] = biological target: T1, PKC-βII (purified isoform) (Homo sapiens (Human), UniProt P05771 2-621); assay: competitive ELISA, coated purified PKC-βII, vs anti-PKC βII (SC-210); PRE 100 µM
T1 construct: also called PKC-beta II; PKC beta 2
Description: (§1) Greiner 96 well ELISA plates were coated with the appropriate PKC isoform diluted in PBSN (PBS with Calcium/Magnesium+0.05% Sodium azide w/w). 50 μL/well at 250 ng/mL was used. Control wells contained PBSN only. Plates were incubated overnight at 4° C.
(§2) The plates were washed 3 times with 200 μL of dH₂O per well, then 100 μL of blocking solution was added per well and the plate incubated for 1 h at 37° C. The washing steps with dH₂O were repeated and 50 μL of the appropriate PRE solution (PRE stock solution [20 mM in DMSO] diluted in PBSN) was added and the plate incubated for 1 h at room temperature.
(§3) 50 μL of 1:1000 dilution of Alkaline Phosphatase (AP) conjugated antibody (anti-rabbit for all except zeta, which was anti-goat) was then added and the plate incubated for 1 h at room temperature. Washing with dH₂O was then repeated. Finally, 100 μL of pNPP solution in pNPP buffer (2 mM MgCl₂, 100 mM Sodium bicarbonate in water, pH 9.8) was added to all wells and incubated for 8 minutes for α, βI, βII ε, and ζ, or for 15-20 mins for δ (until sufficient coloration is observed). The reaction was stopped by addition of Stop solution (2N NaOH) and the absorbance at 405 nm was read on a Galaxy Plate reader.

[2] = biological target: T1, PKC-βII (purified isoform); assay: competitive ELISA, coated purified PKC-βII, vs anti-PKC βII (SC-210); PRE 50 µM
Description: as §1, §2, §3

PKC-α (purified isoform) [3] = biological target: T2, PKC-α (purified isoform) (Homo sapiens (Human), UniProt P17252 2-672); assay: competitive ELISA, coated purified PKC-α, vs anti-PKC α (SC-208); PRE 50 µM
T2 construct: also called purified PKC-alpha; commercially purified PKC-alpha
Description: as §1, §2, §3

PKC-α (purified isoform) [4] = biological target: T2, PKC-α (purified isoform); assay: competitive ELISA, coated purified PKC-α, vs anti-PKC α (SC-208); PRE 200 µM
Description: as §1, §2, §3

[5] = biological target: T3, PKC-βI (purified isoform) (Homo sapiens (Human), UniProt P05771 2-671); assay: competitive ELISA, coated purified PKC-βI, vs anti-PKC βI (SC-209); PRE 100 µM
T3 construct: also called PKC-beta I; PKC beta 1
Description: as §1, §2, §3

PKC-δ (purified isoform) [6] = biological target: T4, PKC-δ (purified isoform); assay: competitive ELISA, coated purified PKC-δ, vs anti-PKC δ (SC-213); PRE 50 µM
T4 construct: also called PKC-delta
Description: as §1, §2, §3

[7] = biological target: T3, PKC-βI (purified isoform); assay: competitive ELISA, coated purified PKC-βI, vs anti-PKC βI (SC-209); PRE 200 µM
Description: as §1, §2, §3

[8] = biological target: T3, PKC-βI (purified isoform); assay: competitive ELISA, coated purified PKC-βI, vs anti-PKC βI (SC-209); PRE 50 µM
Description: as §1, §2, §3

PKC-δ (purified isoform) [9] = biological target: T4, PKC-δ (purified isoform); assay: competitive ELISA, coated purified PKC-δ, vs anti-PKC δ (SC-213); PRE 200 µM
Description: as §1, §2, §3

PKC-δ (purified isoform) [10] = biological target: T4, PKC-δ (purified isoform); assay: competitive ELISA, coated purified PKC-δ, vs anti-PKC δ (SC-213); PRE 100 µM
Description: as §1, §2, §3

PKC-α (purified isoform) [11] = biological target: T2, PKC-α (purified isoform); assay: competitive ELISA, coated purified PKC-α, vs anti-PKC α (SC-208); PRE 100 µM
Description: as §1, §2, §3

[12] = biological target: T1, PKC-βII (purified isoform); assay: competitive ELISA, coated purified PKC-βII, vs anti-PKC βII (SC-210); PRE 200 µM
Description: as §1, §2, §3

T4 sequence (Q05655 whole entry, stated change not applied, canonical isoform): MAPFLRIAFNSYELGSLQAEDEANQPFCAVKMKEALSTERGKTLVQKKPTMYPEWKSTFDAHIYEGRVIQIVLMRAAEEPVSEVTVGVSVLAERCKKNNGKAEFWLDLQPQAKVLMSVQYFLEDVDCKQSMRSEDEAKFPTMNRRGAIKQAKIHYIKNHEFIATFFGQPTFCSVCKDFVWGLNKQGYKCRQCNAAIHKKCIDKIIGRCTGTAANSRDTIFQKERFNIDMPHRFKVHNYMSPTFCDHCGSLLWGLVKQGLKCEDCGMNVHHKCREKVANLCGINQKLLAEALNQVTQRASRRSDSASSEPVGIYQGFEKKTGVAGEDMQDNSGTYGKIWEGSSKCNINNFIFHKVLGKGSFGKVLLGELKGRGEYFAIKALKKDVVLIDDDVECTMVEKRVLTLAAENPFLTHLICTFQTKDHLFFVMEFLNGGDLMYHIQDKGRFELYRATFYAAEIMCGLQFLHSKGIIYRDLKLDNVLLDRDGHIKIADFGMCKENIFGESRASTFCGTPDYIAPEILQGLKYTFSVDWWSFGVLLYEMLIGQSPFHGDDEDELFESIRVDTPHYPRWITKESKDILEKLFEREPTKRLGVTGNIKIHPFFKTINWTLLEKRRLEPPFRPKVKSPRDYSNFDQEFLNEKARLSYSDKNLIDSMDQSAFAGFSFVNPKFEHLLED
T1 sequence (P05771 other isoform, or with tags, fused parts or gaps limits assumed): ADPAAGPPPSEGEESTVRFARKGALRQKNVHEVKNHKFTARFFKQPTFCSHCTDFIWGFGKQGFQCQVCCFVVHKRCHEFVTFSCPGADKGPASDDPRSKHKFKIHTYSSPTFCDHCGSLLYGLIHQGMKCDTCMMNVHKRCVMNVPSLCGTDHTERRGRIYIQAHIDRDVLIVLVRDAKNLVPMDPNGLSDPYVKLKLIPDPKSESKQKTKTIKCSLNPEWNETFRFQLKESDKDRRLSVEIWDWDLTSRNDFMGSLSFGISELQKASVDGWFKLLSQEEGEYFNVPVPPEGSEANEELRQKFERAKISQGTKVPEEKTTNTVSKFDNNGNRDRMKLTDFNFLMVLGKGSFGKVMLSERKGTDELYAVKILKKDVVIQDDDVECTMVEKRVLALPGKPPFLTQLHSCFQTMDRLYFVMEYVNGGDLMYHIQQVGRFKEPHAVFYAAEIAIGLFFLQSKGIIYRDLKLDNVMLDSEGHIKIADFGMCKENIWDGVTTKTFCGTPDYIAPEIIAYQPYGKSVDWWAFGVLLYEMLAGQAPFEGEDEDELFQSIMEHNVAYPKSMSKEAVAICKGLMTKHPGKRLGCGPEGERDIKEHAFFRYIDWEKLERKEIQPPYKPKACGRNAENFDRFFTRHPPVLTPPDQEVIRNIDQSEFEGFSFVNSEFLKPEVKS
T3 sequence (P05771 2-671 limits assumed): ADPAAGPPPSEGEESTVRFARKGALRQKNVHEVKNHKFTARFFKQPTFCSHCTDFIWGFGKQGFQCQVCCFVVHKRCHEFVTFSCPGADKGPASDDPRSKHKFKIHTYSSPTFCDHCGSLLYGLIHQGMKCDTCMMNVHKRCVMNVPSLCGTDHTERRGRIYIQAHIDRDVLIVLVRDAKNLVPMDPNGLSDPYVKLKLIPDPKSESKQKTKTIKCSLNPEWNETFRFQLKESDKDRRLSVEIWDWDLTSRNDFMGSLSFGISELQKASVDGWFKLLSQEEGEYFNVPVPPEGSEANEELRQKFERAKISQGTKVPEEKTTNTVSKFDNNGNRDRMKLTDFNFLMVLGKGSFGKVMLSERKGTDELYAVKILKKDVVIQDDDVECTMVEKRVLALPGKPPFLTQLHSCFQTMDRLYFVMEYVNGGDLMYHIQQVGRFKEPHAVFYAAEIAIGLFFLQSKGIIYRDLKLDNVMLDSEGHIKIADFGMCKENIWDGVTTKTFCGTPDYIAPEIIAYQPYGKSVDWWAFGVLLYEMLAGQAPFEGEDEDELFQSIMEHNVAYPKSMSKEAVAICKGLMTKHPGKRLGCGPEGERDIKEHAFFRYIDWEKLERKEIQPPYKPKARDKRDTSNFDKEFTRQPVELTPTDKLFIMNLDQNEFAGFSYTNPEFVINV

relative binding capacity (100-%n, DMSO subtracted) [1]	relative binding capacity (100-%n, DMSO subtracted) [2]	relative binding capacity (100-%n, DMSO subtracted) (PKC-α (purified isoform) [3])	relative binding capacity (100-%n, DMSO subtracted) (PKC-α (purified isoform) [4])	relative binding capacity (100-%n, DMSO subtracted) [5]	relative binding capacity (100-%n, DMSO subtracted) (PKC-δ (purified isoform) [6])	relative binding capacity (100-%n, DMSO subtracted) [7]	relative binding capacity (100-%n, DMSO subtracted) [8]	relative binding capacity (100-%n, DMSO subtracted) (PKC-δ (purified isoform) [9])	relative binding capacity (100-%n, DMSO subtracted) (PKC-δ (purified isoform) [10])	relative binding capacity (100-%n, DMSO subtracted) (PKC-α (purified isoform) [11])	relative binding capacity (100-%n, DMSO subtracted) [12]	Binder
0%	4.55%	3.29%	0%	0%	2.26%	0%	0.79%	23.5%	1.02%	5.16%	0%	Ac-KDAQNLI-NH2 (Ac-KDAQNLI-NH2; also called peptide PRE 12) [PRE 12]
1.63%	0%	0%	0%	0%	0%	0%	0%	17.9%	0.79%	0%	0%	Ac-RDAQNLI-NH2 (Ac-RDAQNLI-NH2; also called peptide PRE 13) [PRE 13]
0%	0%	0%	0%	0%	0.2%	0%	0%	4.31%	0%	0%	0%	Ac-AKGIQEVKGGKDAQNLIGISI-NH2 (also called peptide PRE 5) [PRE 5]
0%	0%	0%	0%	4.35%	0%	0%	3.77%	9.47%	0%	0%	0%	Ac-ISIGILNQADK-NH2 (also called peptide PRE 10) [PRE 10]
